Experiment: yeast display, Sf9 membrane polyspecificity reagent, FACS + sequencing; frameworks hold sequencing errors
How it was run: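 Galactose induction of a Saccharomyces cerevisiae BJ5465 synthetic nanobody display library ran 36–48 hours. The cells were then stained for 1 hour at 4 °C with 10% biotinylated, detergent-solubilized Sf9 membrane reagent, pulled down on streptavidin microbeads and FACS-sorted into low and high (top ~1%) gates on expression and reagent-binding fluorescence. Labels for polyreactivity follow the gate of origin.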

Sequence	polyreactivity (PSR sort gate)
QVQLVESGGGLVQAGGSLRLSCAASGLTFGFYAMGWYRQAPGKERELVAGISNGGSTNYADSVKGRFTISRDNAKNTVYLQMNSLKPEDTAVYYCAARLYARRLYDYWGQRTQVTVSS	low polyreactivity
QVQLVESGGGLVQAGGSLRLSCAASGSTFAPYAMGWYRQAPGKERELVAVITWSGGRTYYADSVKGRFTISRDNAKNTVYLQMNSLKPEDTAVYYCNDVPLLQGFNYWGQGTQGTVSS	high polyreactivity
QVQLVESGGGLVQAGGSLRLSCAASGIIFSYNAMGWYRQAPGKERELVAAITSIGGRTYYADSVKGRFTISRDNAKNTVYLKMNSLKPEDCAVYYCAVVAAFYNSPEGDYWGQGTQVTVSS	low polyreactivity
QVQLVESGGGLVQAGGSLRLSCAASGRTMGQNVMGLYRQAPGKERELVAAISSNTAGNTYYADSVKGRFTISRDNAKNTVYLQMNSLKPEDTAVYYCAKVDSFEAKLDYWGQGTQVTVSS	low polyreactivity
QVQLVESWGGLVQAGGSLRLSCAASGFTFRGYARGWYRQAPGKERELVAAISRSGGSTNFADSVKGRFTISRDNAKNTVYLQMNSLKPEDTAVYYCAAGWNPYDYWGQGTQVTVSS	high polyreactivity
QVQLVESGGGLVQAGGSLRLSCAASGSIFGEYAMGWYRQAPGKERELVAAINVNGGRTYYADSVKGRFTISRDNAKNTVYLQMNSLKPEDTAVYYCNARSYASYRQGNTYGSWGQGTQVTVSS	high polyreactivity
QVHLVESGGGLVQAGGSLRLSCAASGRIFAWNSMGWYRQAPGKERELVAAITYNGGSTYYADSVKGRFTISRDNAKNTVYLQMNSLKPEDTAVYYCNKVTRSPAQGYGYWGQGTQVTVSS	high polyreactivity
QVQLVESGGGLVQAGGSLRLSCAASGSTFERYAMGWYRQAPGKKWSWLPYADSVKGRFTISRDNAKNTVYLQMNSLKPEDTAVYYCNAERDSPPLNLDRGWEYDYWGQGTQVTVSS	low polyreactivity
QVKLVESGAGLVQAGASLRLSCAASGLIFHQYAMGWYRQAPGKERELVAAITRSGTRTYYADSVKGRFTISRDNEKNTVYLQMNSLKPEDTAVYYCAAADTQGVSMDYWGQGTQVTVSS	high polyreactivity
QVHLVESGGGLGKAGGSLRLSSAASGRTFQYYTMGWYRQAPGKARELVAAIRRGGSTYYADSVKGRFTISRDNAKNTVYLQMYSLKPEDTAVYYCAALYAYSLTARGMEYWGQGTQVTVSS	high polyreactivity
QVQLVESGGGLVQAGGSLRLSCAASGSTFYNYAMGWYRQAPGKERELVAAITSSGGSTYYADSVKGRFTISRDNAKNTVYLQMNSLKPEDTAVYYCNADDGYGQVHSISTYEMDYWGQGTQVTVSS	low polyreactivity
QVQLVESGGGLVQAGGRLRLTCAASGSIFEGYAMGWYRQAPGKERELGARITSDDDSTYYADSVKGRFTISRDNAKNSVYLQMKSLKPEDTAVYYCNAVYYWTSLAMDSWGQGTQVTVSS	low polyreactivity
QVQLVESCGGLVQAGGSLRLSCAASGSIFGDYVMGWYRQAPGKERELVAAINRGGSTYYADSVKGRFTISRDNAKNTVYLQMNSLKPEDTAVYYCAAGYPSWYYGYPYDSWGQGTQVTVSS	low polyreactivity
QVQLVESGGGLVQAGGSLRLSCAASGSITYLYAMGSYRQAPGKERELLASITWSGGSTYYADSVKGRFTISRDNAKNTVYLQMNSLKPEDTAVYDCAALYQPFPWTWDGYYWGQGTQVTVSS	low polyreactivity
QVHLVESGGGLVKAGGSLRLSCPASGFIFTLYAMGWYRQPPGKERELVASIRGSGGNTYYADSVKGRFTISRDNAKNTVYLQMNSLKPEDTAVYYCAAGYPYYYWTPYYYWGQGTQVTVSS	high polyreactivity
QVQLVESGGGLVQAGGSLRLSCAASGSIFYPYAMGWYRQAPGKERQLVAAISYSGGSTYYADSVKGRFTISRDNAKNTVYLQMNSLKPEDTAVYYCAADVTAGDGRNDYWGIGTQVTVSS	low polyreactivity
QVQLVESGGGLVQAGGSLRLSCAASGFTFYRNTMGWYRQAPGKERELVATITFSGTRTYYADSVKGRFTISRDNAKNTVYLQMNSLKPEDTAVYYCNRVRYRQSAFDFWGQGTQVTVSS	high polyreactivity
QVQLVESGGGLVQAGGSLRLSCAASGFTFYSYAMGWYRQAPGKERELVAAISWSGTRTYYADSVKGRFTISRDNAKNTVYLQMNSLKPEDTAVYYCAARGYRYGYGYWGQGTQVTVSS	high polyreactivity
QVQLVESGGGLVQAGGSLRLSCAASGSTFRLYAIGWYRQAPWKERELDAAISSGGTTKYADSVKGRFTISRDNAKKTVYLQMNRLKPEDTAVYYCNAVYHWGNPGEYATLPRYDYWGQGTQVTVSS	high polyreactivity
QVQLVESGGGLVQAGGSLRLSCAASGLTFVYNTMGWYRQAPGKERELVAAINWSGGRTYYADSVKGRFTISRDNAKNTVYLQMNSLKPEDTAVYYCAALYVPNTPTYKYDYWGQGTQVTVSS	low polyreactivity
QVQLVESGGGLVQAGGSLRLSCAASGFTFVRYTMGWYRQSPGKEREMVAAINRSGGNTYYADSVKGRFTISRDNAKNTVYLQMNSLKPEDTAVYYCAAGYYVQVSLKDYYWGQGTQVTVSS	high polyreactivity
QVQLVESGGGLVQAGGSLRISCAASGFTFSYYAMGWYRQAPGKERDLVAAISGRTGRTYYADSVKGRFTISRDNAKNTVYLQMNSLKPEDTAVYYCAAGYTFSRYDDDYWGQGTQVTVSW	low polyreactivity

Sequence	polyreactivity (PSR sort gate)
QVQLVESGGGLVQAGGSLRLSCAASGRTFWNYSMGWYRQAPGKERELVAVIRFSDGSTYYADSVKGRFTISRDNAKNTVYLQMNSLKPEDTAVYYCAADYSLYGWWFRNDYWGQGTQVTVSS	low polyreactivity
QVQLVESGGGLVQAGGSLRLSFAASGSTFSRNTMGWYRQAPGKERELVAAISKSGGRTYYADSVKGRFTISRDNAKNTVYLQINSLKPEDSAVYYCNAAVYAYASDYWGQGTQVTVSS	high polyreactivity
QVQLVESGGGLVQAGGSLRLSCAASGFILEPNAMGWYRQAPGKERELVATISFSGGGTYYADSVKGRFTISRDNAKNTVYLQMNSLKPEDTAVYYCAADWYYYVWWYDYWGQGTQVTVSS	high polyreactivity
QVHLVESGGGLVQAGGSLRLSCAASGSIFGTNALGWYRQAPGKERELVAAINWSGGTTYYADSVKGRFTISRDNAKNTVYLQMNTLKPEDTAVYYCATFFFVLPPTRFDSWGQGTQVTVSS	low polyreactivity
QVQLVESGGGLVQAGGSLRLSCAASGSTFAGNAMGWYRQAPGKERELVAAISSGDRTYYADSVKGRFIISRDNAKNTVYLQMNSLKPEDTAVYYCAAGLYLQGPFDYWGQGTQVTVSS	low polyreactivity
QVQLVESGGGLVQAGGSLRLSCAASGIIFKIYAMGWYRQAPGKERELVAAITRSGTRTYYADSVKGRFTISRDNAKNTVYLQMNSLKPEDTAVYYCNAYTTLAYDLDYWGQGTQVTVSS	high polyreactivity
QVPLVESGVGLVQAGGSLRISCAASGFTFSRYAMGWYRQAPGKERELVAAISRTGGRTYYADSVKGRFTITRDNAKNTVYLQMNSLKPEDTADYYCARVPVHSHLRQTYAMEYWGQGTQVTVSS	high polyreactivity
QVQLVESGGGLVQAGGSLRLSCAASGRTLPSYAMGWYRQAPGKERELVAAITGSGGRTYYADSVKGRFTISRDNAKNTVYLQMNSLKPEDTAVYYCAARQDDYGKINYYWGQGTQVTVSS	high polyreactivity
QVQHVESGGGLVQAGGSLRLSCAASGRTFRYNAMGWSRQAPGKERELVAAISSGDRTNYADSVKGRFTISRDNAKYTVYLQMYSLKPEDTAVYYCAAQTDSYYDFDYWGQGTQVTVSS	low polyreactivity
QVQLVESGGGLVQAGGSLRLSCAASGSIFFWYAMGWYRQAPGKERELVAAISRGGRTTYADSVKGRFTISRDNAKNTVYLQMNSLKPEDTAVYYCAAYRYFTYFYYSDYPYNYWGQGTQVTVSS	high polyreactivity
QVQLVESGGVLVQAGGSLRLSCAASGRTFLNYTMGWYRQAPRKDIELVAAISTSGGSTNYADSVKGRFTISRDNAKNTVYLQMTSLKPEDTAVYYCAAETSTKPEAYEYWGQGTQVTVSS	low polyreactivity
QVQLVESGGGLVQAGGSLRLSCAASGITFGYYARGGYRQAPGNERELVAAISRNGGSTYYADSVKGRFTISRDNAKNTVYLQMNSLKPEDTAVYYCNARGNQAVIGYEYWGQGTQVTVSS	high polyreactivity
QVQLVESGGGLVQAGGSLRLSCAASGRTFRAYALGWYRQAPGKERELVAAITSGGSTKYADSVKGRFTISRDNAKNTVYLQMNSLKPEDTAVYYCNARVRVRLGRNWSSYYYWGQGTQVTVSS	high polyreactivity
QFQLVESCAGLVQAGGSLRLSCADSGRIFRQYAMGWYIPAPGKERELVASITRNGGSTYYADSVKGRFTISRDNAKNTVYLQMNSQKPEDTAVYYCAKDVKGSYAYDSWGQGTQVTVSS	high polyreactivity
HVQLVESGGGLVQAGGSLRLSCAASGSIYALYDLGRYRQAPGKERELVASITGSGGNTYYADSVKGRFTISRDNAKNTVYLQMNSLKPEDTAVYYCAADFRYAGYSYDYWGQGTQVSVSS	low polyreactivity
QVQVVESGGGIVQAGGSLRLSCAASGFIFNGNAMGWYRQAPGKERELVAADSVKGRFTISRDNAKNSVYLQMNRLKPEDTAVYYCATEFWQASDYDYWGHGTQVTVSS	low polyreactivity
QVQLVESGGGLVQAGGSLRLSCAASGRIFRYYMGWYRQAPGKERELVAVISSGGRTKYADSVKGRFTISRDNAKNTVYLQMNSLKPEDTAVYYCAARYPREAAYGFDYWGQGTQVTVSS	high polyreactivity
QVQLVESGGGLVQAGGILRLSCAASGRIFPKYAMGWYRQAPGKERELVAAIRWSGGNTYYADSVKGRFTISRDNAKNTVYLQMNSLKPEDTAVYYCAATPYVSKYYYFGHDYWGQGTQVTVSS	high polyreactivity
QVQLVESGGGLVQAGGSLRLSCAASGSIFADYAMGWYRQAPGKERELVAVISRRGGTTYYADSVKGRFTISRDNAKNTVYLQMNSLKTEDTAVYYCAARRSFNEYDYWGQGSQVTVSS	high polyreactivity
QVQLVESGGGLVQAGGSLRLTCAASGSTFKYYAMGWYRQAPGKERELVAAINQSGGNTFYAESVKGRFTISRDNAKNSVSLQINSLKPEDTAVYYCAADYYFYTIVSSEMDYWGQGSQVTVSS	high polyreactivity
QVQLVESGGGLVQAGGSLLLSSAASGINFGNYAMGWYRQAPGKERELVATIDSAGSPYYADSVNGRFTISRDNAKNTVYLQMNSLKPEDTAVYYCAVRFGTYGRYFGYDYWGQGTQVTVSS	high polyreactivity

Reference: the nanobody polyreactivity screen of Harvey et al. (2022)
